Conditions: Bos taurus, glycine 40 mM, reversible: no, whole UniProt chain shown; for Tm / unfolding enthalpy (van 't Hoff): Thermal, Absorbance

B1: Adrenodoxin, mitochondrial wild type, P00257 (protein)
chain: MAARLLRVASAALGDTAGRWRLLARPRAGAGGLRGSRGPGLGGGAVATRTLSVSGRAQSSSEDKITVHFINRDGETLTTKGKIGDSLLDVVVQNNLDIDGFGACEGTLACSTCHLIFEQHIFEKLEAITDEENDMLDLAYGLTDRSRLGCQICLTKAMDNMTVRVPDAVSDARESIDMGMNSSKIE
With B1 the Tm (pH 6.5) was 47.5 °C, the “unfolding enthalpy (van 't Hoff)” value (pH 6.5) was 90 kcal/mol and the Tm (pH 7.4) was 53.7 °C. For the same protein, the “unfolding enthalpy (van 't Hoff)” value (pH 7.4) was 91.6 kcal/mol, the unfolding free energy (pH 8.5, 25 °C, Urea, DSC) was 5.02 kcal/mol and the Tm (pH 8.5) was 53.5 °C. For the same protein, the “unfolding enthalpy (van 't Hoff)” value (pH 8.5) was 82 kcal/mol, the Tm (pH 9.5) was 54 °C and the “unfolding enthalpy (van 't Hoff)” value (pH 9.5) was 79.2 kcal/mol. The Tm (pH 10.5) was 53.2 °C and the “unfolding enthalpy (van 't Hoff)” value (pH 10.5) was 64.6 kcal/mol.

From FireProtDB (doi:10.1002/pro.5560040510)
